Data reported in patent US20190015483A1 (CSL BEHRING RECOMBINANT FACILITY, published 2019).
Residue numbers refer to the chain shown, from its start. In names and notes the source's numbering stands.

T1: recombinant Factor VIII (CSL627, rVIII-SingleChain) (Homo sapiens (Human), UniProt P00451 20-2351)
T1 construct: also called FVIII
T1 sequence: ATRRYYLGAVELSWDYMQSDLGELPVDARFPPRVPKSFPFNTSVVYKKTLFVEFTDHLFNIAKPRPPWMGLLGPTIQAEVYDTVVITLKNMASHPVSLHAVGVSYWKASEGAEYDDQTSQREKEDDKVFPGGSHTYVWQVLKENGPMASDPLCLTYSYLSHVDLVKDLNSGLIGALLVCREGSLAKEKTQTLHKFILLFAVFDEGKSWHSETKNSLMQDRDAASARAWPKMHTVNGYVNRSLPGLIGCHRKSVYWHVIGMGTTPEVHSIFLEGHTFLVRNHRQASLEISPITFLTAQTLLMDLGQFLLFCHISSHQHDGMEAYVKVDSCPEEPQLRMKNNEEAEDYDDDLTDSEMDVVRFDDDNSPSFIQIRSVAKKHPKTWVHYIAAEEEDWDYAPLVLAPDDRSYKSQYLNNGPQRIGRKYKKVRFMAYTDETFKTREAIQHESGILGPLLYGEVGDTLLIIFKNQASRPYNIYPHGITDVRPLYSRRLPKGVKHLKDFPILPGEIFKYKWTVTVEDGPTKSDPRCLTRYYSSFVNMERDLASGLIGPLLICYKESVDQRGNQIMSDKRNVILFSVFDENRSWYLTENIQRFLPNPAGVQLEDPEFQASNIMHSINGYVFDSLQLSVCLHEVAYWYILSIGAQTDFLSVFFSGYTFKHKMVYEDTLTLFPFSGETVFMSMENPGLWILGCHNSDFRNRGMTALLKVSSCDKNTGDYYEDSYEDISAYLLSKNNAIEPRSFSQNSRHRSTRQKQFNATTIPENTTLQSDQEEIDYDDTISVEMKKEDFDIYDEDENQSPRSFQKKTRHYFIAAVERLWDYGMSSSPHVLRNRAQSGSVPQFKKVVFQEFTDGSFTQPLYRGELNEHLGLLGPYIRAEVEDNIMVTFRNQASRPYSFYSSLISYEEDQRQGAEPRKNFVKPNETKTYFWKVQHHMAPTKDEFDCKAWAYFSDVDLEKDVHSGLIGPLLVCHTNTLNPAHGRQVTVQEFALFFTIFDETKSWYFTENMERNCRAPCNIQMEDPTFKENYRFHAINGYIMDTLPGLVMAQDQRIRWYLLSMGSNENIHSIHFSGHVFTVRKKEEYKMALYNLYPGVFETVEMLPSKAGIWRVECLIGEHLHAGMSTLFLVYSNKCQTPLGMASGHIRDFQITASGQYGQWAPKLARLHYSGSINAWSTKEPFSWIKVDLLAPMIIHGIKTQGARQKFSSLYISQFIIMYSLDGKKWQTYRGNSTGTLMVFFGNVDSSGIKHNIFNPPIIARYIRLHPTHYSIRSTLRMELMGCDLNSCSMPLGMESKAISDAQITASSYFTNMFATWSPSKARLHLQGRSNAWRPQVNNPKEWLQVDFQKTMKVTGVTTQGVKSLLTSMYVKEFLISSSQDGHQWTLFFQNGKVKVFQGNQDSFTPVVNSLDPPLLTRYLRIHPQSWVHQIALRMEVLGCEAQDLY

T2: recombinant Factor VIII (CSL627, rVIII-SingleChain) (Homo sapiens (Human), UniProt P00451 20-2351)
T2 construct: also called FVIII
T2 sequence: T1 sequence

B1: Hu-vWF[764-1270]-8His S764P-K773A (other)
chain: PLSCRPPMVALVCPADNLRAEGLECTKTCQNYDLECMSMGCVSGCLCPPGMVRHENRCVALERCPCFHQGKEYAPGETVKIGCNTCVCRDRKWNCTDHVCDATCSTIGMAHYLTFDGLKYLFPGECQYVLVQDYCGSNPGTFRILVGNKGCSHPSVKCKKRVTILVEGGEIELFDGEVNVKRPMKDETHFEVVESGRYIILLLGKALSVVWDRHLSISVVLKQTYQEKVCGLCGNFDGIQNNDLTSSNLQVEEDPVDFGNSWKVSSQCADTRKVPLDSSPATCHNNIMKQTMVDSSCRILTSDVFQDCNKLVDPEPYLDVCIYDTCSCESIGDCACFCDTIAAYAHVCAQHGKVVTWRTATLCPQSCEERNLRENGYECEWRYNSCAPACQVTCQHPEPLACPVQCVEGCHAHCPPGKILDELLQTCVDPEDCPVCEVAGRRFASGKKVTLNPSDPEHCQICHCDVVNLTCEACQEPGGLVVPPTDAPVSPTTLYVEDISEPPLHDFHHHHHHHH
B2: Hu-vWF[764-1270]-8His S764P-K773N (other)
chain: B1 chain with A10N
B3: Hu-vWF[764-1270]-8His S764P-K773F (other)
chain: B1 chain with A10F
B4: Hu-vWF[764-1270]-8His S764P-L765M (other)
chain: B1 chain with L2M, A10K
B5: Hu-vWF[764-1270]-8His S764P-K773V (other)
chain: B1 chain with A10V
B6: Hu-vWF[764-1270]-8His S764P-L765H (other)
chain: B1 chain with L2H, A10K
B7: Hu-vWF[764-1270]-8His S766Y-R768Y (other)
chain: B1 chain with P1S, S3Y, R5Y, A10K
B8: Hu-vWF[764-1270]-8His S764P-K773E (other)
chain: B1 chain with A10E
B9: Hu-vWF[764-1270]-8His S764P-L765I (other)
chain: B1 chain with L2I, A10K
B10: Hu-vWF[764-1270]-8His S766Y-R768V (other)
chain: B1 chain with P1S, S3Y, R5V, A10K
B11: Hu-vWF[764-1270]-8His S766Y-R768P (other)
chain: B1 chain with P1S, S3Y, R5P, A10K
B12: Hu-vWF[764-1270]-8His S766Y-R768W (other)
chain: B1 chain with P1S, S3Y, R5W, A10K
B13: Hu-vWF[764-1270]-8His S764P-L765A (other)
chain: B1 chain with L2A, A10K
B14: Hu-vWF[764-1270]-8His S766Y-R768N (other)
chain: B1 chain with P1S, S3Y, R5N, A10K
B15: Hu-vWF[764-1270]-8His S764P-K773H (other)
chain: B1 chain with A10H
B16: Hu-vWF[764-1270]-8His S764P-K773L (other)
chain: B1 chain with A10L
B17: Hu-vWF[764-1270]-8His S766Y-R768S (other)
chain: B1 chain with P1S, S3Y, R5S, A10K
B18: Hu-vWF[764-1270]-8His S764P-K773Y (other)
chain: B1 chain with A10Y
B19: Hu-vWF[764-1270]-8His S766Y-R768Q (other)
chain: B1 chain with P1S, S3Y, R5Q, A10K
B20: Hu-vWF[764-1270]-8His S764P-K773Q (other)
chain: B1 chain with A10Q
B21: Hu-vWF[764-1270]-8His S764P-K773W (other)
chain: B1 chain with A10W
B22: Hu-vWF[764-1270]-8His S766Y-R768T (other)
chain: B1 chain with P1S, S3Y, R5T, A10K
B23: Hu-vWF[764-1270]-8His S764P-K773D (other)
chain: B1 chain with A10D
B24: Hu-vWF[764-1270]-8His S764P-K773G (other)
chain: B1 chain with A10G
B25: Hu-vWF[764-1270]-8His S764P-K773P (other)
chain: B1 chain with A10P
B26: Hu-vWF[764-1270]-8His S764P-K773T (other)
chain: B1 chain with A10T
B27: Hu-vWF[764-1270]-8His S764P-K773S (other)
chain: B1 chain with A10S
B28: Hu-vWF[764-1270]-8His S764P-K773R (other)
chain: B1 chain with A10R
B29: Hu-vWF[764-1270]-8His S764P-L765F (other)
chain: B1 chain with L2F, A10K
B30: Hu-vWF[764-1270]-8His S764P-K773M (other)
chain: B1 chain with A10M
B31: Hu-vWF[764-1270]-8His S764P-K773I (other)
chain: B1 chain with A10I

Legend:
[1] = molecular target: T1, recombinant Factor VIII (CSL627, …); assay: SPR, anti-His capture
Protocol: Binding kinetics were investigated by surface plasmon resonance using a Biacore 4000 biosensor at 37° C. Each mutant was captured from cell culture medium to a density of 40-150 RU on a CM-5 sensor chip pre-immobilised with anti-His antibody (14,000 RU). In an initial screening study, FVIII was injected over the captured mutants for 5 minutes at 1 nM and dissociation monitored for 5 minutes.
All sensorgrams were double referenced by subtraction of signals from a reference spot (containing only immobilised anti His antibody) and from a blank injection. Binding kinetics were determined by fitting the double referenced sensorgrams to a 1:1 kinetic model.

[2] = molecular target: T2, recombinant Factor VIII (CSL627, …); assay: SPR, anti-His capture, FVIII injected, 37 C
Procedure, shortened: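 His-tagged mutants captured from culture medium (40–150 RU) on anti-His CM-5 surface at 37° C; FVIII injected 5 min, dissociation 5 min, at 1 nM in screening. Double-referenced sensorgrams fitted to a 1:1 kinetic model.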

Binder	Kd [1]	koff [1]	kon [1]	Kd [2]	koff [2]	kon [2]
B1	0.0297 nM	0.000189 s⁻¹	6.37e+06 M⁻¹ s⁻¹			
B2	0.0631 nM	0.000347 s⁻¹	5.5e+06 M⁻¹ s⁻¹			
B3	0.121 nM	0.00123 s⁻¹	1.02e+07 M⁻¹ s⁻¹			
B4	0.0243 nM	0.000237 s⁻¹	9.76e+06 M⁻¹ s⁻¹			
B5	0.0101 nM	0.000157 s⁻¹	1.55e+07 M⁻¹ s⁻¹			
B6	0.555 nM	0.00642 s⁻¹	1.16e+07 M⁻¹ s⁻¹			
B7				0.277 nM	0.00187 s⁻¹	6.74e+06 M⁻¹ s⁻¹
B8	0.0765 nM	0.00515 s⁻¹	6.73e+07 M⁻¹ s⁻¹			
B9	0.0118 nM	9.52e-05 s⁻¹	8.08e+06 M⁻¹ s⁻¹			
B10				0.203 nM	0.000918 s⁻¹	4.51e+06 M⁻¹ s⁻¹
B11				0.213 nM	0.00143 s⁻¹	6.71e+06 M⁻¹ s⁻¹
B12				0.213 nM	0.00094 s⁻¹	4.42e+06 M⁻¹ s⁻¹
B13	0.906 nM	0.0278 s⁻¹	3.07e+07 M⁻¹ s⁻¹			
B14				0.191 nM	0.000798 s⁻¹	4.18e+06 M⁻¹ s⁻¹
B15	0.0386 nM	0.000636 s⁻¹	1.65e+07 M⁻¹ s⁻¹			
B16	1.24 nM	0.000572 s⁻¹	460000 M⁻¹ s⁻¹			

Binder	Kd [1]	koff [1]	kon [1]	Kd [2]	koff [2]	kon [2]
B17				0.243 nM	0.00129 s⁻¹	5.33e+06 M⁻¹ s⁻¹
B18	0.0835 nM	0.00136 s⁻¹	1.63e+07 M⁻¹ s⁻¹			
B19				0.174 nM	0.000606 s⁻¹	3.48e+06 M⁻¹ s⁻¹
B20	0.0288 nM	0.000128 s⁻¹	4.44e+06 M⁻¹ s⁻¹			
B21	0.257 nM	0.00321 s⁻¹	1.25e+07 M⁻¹ s⁻¹			
B22				0.256 nM	0.00143 s⁻¹	5.59e+06 M⁻¹ s⁻¹
B23	0.136 nM	0.0024 s⁻¹	1.77e+07 M⁻¹ s⁻¹			
B24	0.0436 nM	0.000762 s⁻¹	1.75e+07 M⁻¹ s⁻¹			
B25	0.0222 nM	0.000501 s⁻¹	2.26e+07 M⁻¹ s⁻¹			
B26	0.016 nM	7.5e-05 s⁻¹	4.68e+06 M⁻¹ s⁻¹			
B27	0.0142 nM	0.000306 s⁻¹	2.16e+07 M⁻¹ s⁻¹			
B28	0.0116 nM	7.42e-05 s⁻¹	6.39e+06 M⁻¹ s⁻¹			
B29	0.0373 nM	0.000632 s⁻¹	1.69e+07 M⁻¹ s⁻¹			
B30	0.0108 nM	0.00017 s⁻¹	1.58e+07 M⁻¹ s⁻¹			
B31	0.00943 nM	0.000169 s⁻¹	1.79e+07 M⁻¹ s⁻¹			
